Reference: article PMC6317261, “Functional dissection of the developmentally restricted BEN domain chromatin boundary factor Insensitive” (Epigenetics & Chromatin, 2019)
“And” between values parts separate entries of the source, which are not always exact repeats. Equal values may be shown once.

How the values were obtained:
[1] = molecular target: GST; test: cross-linking; controls GST and Thioredoxin; the cross-linker is not named in the legend
[2] = molecular target: the molecule itself; test: SEC; Superdex 200 10/300 column; 500 uL of the eluted protein loaded; sizes estimated against Bio-Rad standards (1.35 to 670 kDa)
[3] = molecular target: the molecule itself; test: cross-linking; glutaraldehyde, 10 min at room temperature in PBS with 1 mM beta-mercaptoethanol; protein adjusted to 10 uM; SDS-PAGE, silver staining
[4] = molecular target: T1, HT:F-Insv (UniProt Q8SYK5 1-376); test: EMSA; at least three shifts; EMSA: 25 mM Tris-HCl pH 7.4, 100 mM KCl, 1 mM EDTA, 0.1 mM DTT, 0.1 mM PMSF, 0.03 mg/mL BSA, 10% glycerol, 0.5% Triton X-100, 0.25 mg/mL poly(dI-dC), 30 min room temperature; conditions: protein: recombinant; tags: N-terminal His-Thioredoxin; label: 5'-32P; blunt
T1 sequence: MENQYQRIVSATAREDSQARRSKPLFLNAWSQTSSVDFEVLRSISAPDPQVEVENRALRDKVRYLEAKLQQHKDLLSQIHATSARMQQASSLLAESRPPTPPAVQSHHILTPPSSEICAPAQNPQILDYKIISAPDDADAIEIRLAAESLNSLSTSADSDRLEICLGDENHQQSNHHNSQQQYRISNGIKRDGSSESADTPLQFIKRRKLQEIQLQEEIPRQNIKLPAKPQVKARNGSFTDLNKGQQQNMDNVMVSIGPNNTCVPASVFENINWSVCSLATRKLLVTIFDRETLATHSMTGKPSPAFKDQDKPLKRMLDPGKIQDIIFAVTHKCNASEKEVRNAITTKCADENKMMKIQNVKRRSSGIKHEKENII

[5] = molecular target: T2, HS:C-BEN (UniProt Q8SYK5 210-376); test: EMSA; multiple shifts, at lower protein than for P2; EMSA: 25 mM Tris-HCl pH 7.4, 100 mM KCl, 1 mM EDTA, 0.1 mM DTT, 0.1 mM PMSF, 0.03 mg/mL BSA, 10% glycerol, 0.5% Triton X-100, 0.25 mg/mL poly(dI-dC), 30 min room temperature; conditions: protein: recombinant; tags: N-terminal His-Sumo; chain copies: 2; label: 5'-32P; blunt
T2 sequence: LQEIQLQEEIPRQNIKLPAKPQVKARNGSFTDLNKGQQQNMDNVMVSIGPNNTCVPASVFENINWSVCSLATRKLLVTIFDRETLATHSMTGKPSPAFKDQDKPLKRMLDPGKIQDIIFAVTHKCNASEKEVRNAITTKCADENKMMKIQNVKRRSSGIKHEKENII

[6] = molecular target: T2, HS:C-BEN; test: EMSA; multiple shifts, mainly tetramer/hexamer; EMSA: 25 mM Tris-HCl pH 7.4, 100 mM KCl, 1 mM EDTA, 0.1 mM DTT, 0.1 mM PMSF, 0.03 mg/mL BSA, 10% glycerol, 0.5% Triton X-100, 0.25 mg/mL poly(dI-dC), 30 min room temperature; conditions: protein: recombinant; tags: N-terminal His-Sumo; chain copies: 2; label: 5'-32P; blunt
[7] = molecular target: T1, HT:F-Insv; test: EMSA; multiple shifts; 0.0005-0.5 uM protein; EMSA: 25 mM Tris-HCl pH 7.4, 100 mM KCl, 1 mM EDTA, 0.1 mM DTT, 0.1 mM PMSF, 0.03 mg/mL BSA, 10% glycerol, 0.5% Triton X-100, 0.25 mg/mL poly(dI-dC), 30 min room temperature; conditions: protein: recombinant; tags: N-terminal His-Thioredoxin; label: 5'-32P; blunt
[8] = molecular target: T3, GST:F-Insv (UniProt Q8SYK5 1-376); test: EMSA; closely spaced doublet; EMSA: 25 mM Tris-HCl pH 7.4, 100 mM KCl, 1 mM EDTA, 0.1 mM DTT, 0.1 mM PMSF, 0.03 mg/mL BSA, 10% glycerol, 0.5% Triton X-100, 0.25 mg/mL poly(dI-dC), 30 min room temperature; conditions: protein: recombinant; tags: N-terminal GST; label: 5'-32P; blunt
T3 sequence: T1 sequence

[9] = molecular target: T4, GST:BEN (UniProt Q8SYK5 258-356); test: EMSA; EMSA: 25 mM Tris-HCl pH 7.4, 100 mM KCl, 1 mM EDTA, 0.1 mM DTT, 0.1 mM PMSF, 0.03 mg/mL BSA, 10% glycerol, 0.5% Triton X-100, 0.25 mg/mL poly(dI-dC), 30 min room temperature; conditions: protein: recombinant; tags: N-terminal GST; chain copies: 2; label: 5'-32P; blunt
T4 sequence: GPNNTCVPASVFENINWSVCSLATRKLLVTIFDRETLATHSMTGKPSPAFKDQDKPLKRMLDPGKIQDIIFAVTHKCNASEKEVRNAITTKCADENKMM

[10] = molecular target: T5, GST:C-BEN (UniProt Q8SYK5 210-376); test: as above; conditions: protein: recombinant; tags: N-terminal GST; chain copies: 2; label: 5'-32P; blunt
T5 sequence: T2 sequence

[11] = molecular target: T1, HT:F-Insv; test: EMSA; 0.0005-0.5 uM protein; EMSA: 25 mM Tris-HCl pH 7.4, 100 mM KCl, 1 mM EDTA, 0.1 mM DTT, 0.1 mM PMSF, 0.03 mg/mL BSA, 10% glycerol, 0.5% Triton X-100, 0.25 mg/mL poly(dI-dC), 30 min room temperature; conditions: protein: recombinant; tags: N-terminal His-Thioredoxin; label: 5'-32P; blunt
[12] = molecular target: T6, GST:N-terminal 213 aa (UniProt Q8SYK5 1-213); test: EMSA; data not shown; EMSA: 25 mM Tris-HCl pH 7.4, 100 mM KCl, 1 mM EDTA, 0.1 mM DTT, 0.1 mM PMSF, 0.03 mg/mL BSA, 10% glycerol, 0.5% Triton X-100, 0.25 mg/mL poly(dI-dC), 30 min room temperature; conditions: protein: recombinant; tags: N-terminal GST; label: 5'-32P; blunt
T6 sequence: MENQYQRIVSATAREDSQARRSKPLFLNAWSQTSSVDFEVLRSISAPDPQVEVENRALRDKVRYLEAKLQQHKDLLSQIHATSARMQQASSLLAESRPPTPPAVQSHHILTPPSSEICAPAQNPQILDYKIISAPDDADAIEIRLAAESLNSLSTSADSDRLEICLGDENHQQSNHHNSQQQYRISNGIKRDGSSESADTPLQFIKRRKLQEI

[13] = molecular target: T7, HS:F-Insv (UniProt Q8SYK5 1-376); test: EMSA; gel-filtration fractions ~420-120 kDa; early aggregate fractions give no shift; EMSA: 25 mM Tris-HCl pH 7.4, 100 mM KCl, 1 mM EDTA, 0.1 mM DTT, 0.1 mM PMSF, 0.03 mg/mL BSA, 10% glycerol, 0.5% Triton X-100, 0.25 mg/mL poly(dI-dC), 30 min room temperature; conditions: protein: recombinant; tags: N-terminal His-Sumo; label: 5'-32P; blunt
T7 sequence: T1 sequence

[14] = molecular target: T2, HS:C-BEN; test: EMSA; two shifts; slower one predominates at high protein; EMSA: 25 mM Tris-HCl pH 7.4, 100 mM KCl, 1 mM EDTA, 0.1 mM DTT, 0.1 mM PMSF, 0.03 mg/mL BSA, 10% glycerol, 0.5% Triton X-100, 0.25 mg/mL poly(dI-dC), 30 min room temperature; conditions: protein: recombinant; tags: N-terminal His-Sumo; chain copies: 2; label: 5'-32P; blunt
[15] = molecular target: the molecule itself; test: SEC; Superose 6 10/300 column; 500 uL of the eluted protein loaded; fractions analysed by SDS-PAGE and EMSA; sizes estimated against Bio-Rad standards
[16] = molecular target: the molecule itself; test: cross-linking; EGS, increasing amounts, 10 min at room temperature in PBS with 1 mM beta-mercaptoethanol; protein adjusted to 10 uM; SDS-PAGE, silver staining

GST (natural protein)
stoichiometry N [1]: 2

B1: His-Sumo C-BEN (HS:C-BEN) (domain or fragment, Drosophila, UniProt Q8SYK5 210-376, looked up)
chain: T2 sequence
notes: Insensitive (Insv), Drosophila; C domain plus BEN domain; 'lacks amino acids 1-209'; elsewhere the C domain is said to extend from aa 209 to aa 253; about 32 kDa with the tag; source: E. coli, purified (Ni-NTA Agarose); not shown: His6, N-terminal, kept; Sumo, N-terminal, kept
stoichiometry N [2]: 2
stoichiometry N [3]: 4

B2: HT:N1-267 (domain or fragment, Drosophila, UniProt Q8SYK5 1-267, looked up)
chain: MENQYQRIVSATAREDSQARRSKPLFLNAWSQTSSVDFEVLRSISAPDPQVEVENRALRDKVRYLEAKLQQHKDLLSQIHATSARMQQASSLLAESRPPTPPAVQSHHILTPPSSEICAPAQNPQILDYKIISAPDDADAIEIRLAAESLNSLSTSADSDRLEICLGDENHQQSNHHNSQQQYRISNGIKRDGSSESADTPLQFIKRRKLQEIQLQEEIPRQNIKLPAKPQVKARNGSFTDLNKGQQQNMDNVMVSIGPNNTCVPAS
notes: source: E. coli, purified (Ni-NTA Agarose); not shown: His6, N-terminal, kept; Thioredoxin, N-terminal, kept
stoichiometry N [3]: 4

B3: 2xPal (dsDNA)
DNA 1: CTCGAGGGGTTTCTTTCCCAATTGGAAATGCGTCCTGTCGAGGGGTTTCTTTCCCAATTGGAAATGCGTCCTGTCGACGGTATCGATAAGCTTGATATCGAATTCCTGCAGCCCGGGGATCC
DNA 2: GGATCCCCGGGCTGCAGGAATTCGATATCAAGCTTATCGATACCGTCGACAGGACGCATTTCCAATTGGGAAAGAAACCCCTCGACAGGACGCATTTCCAATTGGGAAAGAAACCCCTCGAG
binding result [4]: binds
binding result [5]: binds

B4: P2 (P2#7) (dsDNA)
DNA 1: CTTGCGCAGGACTTTTGAGATTCTATTAAATTCTAACAAGATTTCAAGCTGTGTGGCGGGGGGAAGAGGAAGAGAGCGGAAAGTGCAGCGCCCAATAAGCAAATGGCAGCTGTCACG
DNA 2: CGTGACAGCTGCCATTTGCTTATTGGGCGCTGCACTTTCCGCTCTCTTCCTCTTCCCCCCGCCACACAGCTTGAAATCTTGTTAGAATTTAATAGAATCTCAAAAGTCCTGCGCAAG
binding result [6]: binds
binding result [7]: binds

B5: P3 (dsDNA)
DNA 1: CCACCGCAAAATCCAATTGGAAGAGAGCGACT
DNA 2: AGTCGCTCTCTTCCAATTGGATTTTGCGGTGG
binding result [8]: binds
binding result [9]: binds
binding result [10]: binds
binding result [11]: binds
binding result [12]: no binding
binding result [13]: binds
binding result [14]: binds

B6: His-Thioredoxin F-Insv (HT:F-Insv) (natural protein, Drosophila, UniProt Q8SYK5 1-376, looked up)
chain: T1 sequence
notes: Insensitive (Insv), Drosophila, full-length; also called HT:Insv; HT-Insv; source: E. coli, purified (Ni-NTA Agarose); not shown: His6, N-terminal, kept; Thioredoxin, N-terminal, kept
stoichiometry N [15]: 2 and 4

B7: HT:N1-111 (domain or fragment, Drosophila, UniProt Q8SYK5 1-111, looked up)
chain: MENQYQRIVSATAREDSQARRSKPLFLNAWSQTSSVDFEVLRSISAPDPQVEVENRALRDKVRYLEAKLQQHKDLLSQIHATSARMQQASSLLAESRPPTPPAVQSHHILT
notes: Insensitive (Insv), Drosophila, residues 1-111: includes the predicted coiled-coil domain (about 51-104); source: E. coli, purified (Ni-NTA Agarose); not shown: His6, N-terminal, kept; Thioredoxin, N-terminal, kept
stoichiometry N [3]: 4

B8: HT:N1-213 (domain or fragment, Drosophila, UniProt Q8SYK5 1-213, looked up)
chain: T6 sequence
notes: as for B2
stoichiometry N [16]: 4
